Measurements reported in the MegaScale stability set (Tsuboyama et al. 2023).

B1: EHEE_rd3_0053 (parent)
chain: TYTFKVDNKDQAKKAAKWAKKLGLSFQIEKHGDTFKITVQ

Variants of: B1
Assay: folding stability dG (cDNA display proteolysis); higher = more stable
Conditions: PBS, room temperature

Variant	folding stability dG [kcal/mol]
TYTFKVDNKDQAKKAAKWAKKLGLSFQIEKHGDTFKATVQ [I37A]	0.507
TYTFKIDNKDQAKKAAKWAKKLGLSFQIEKHGDTFKITVQ [V6I]	1.89
TYTFKFDNKDQAKKAAKWAKKLGLSFQIEKHGDTFKITVQ [V6F]	2.32
TYTFKKDNKDQAKKAAKWAKKLGLSFQIEKHGDTFKITVQ [V6K]	0.315
TYTFKVDNKDQAKKAAKWAKKNGLSFQIEKHGDTFKITVQ [L22N]	2.32
TYTFKVDNKDQAKKAAKWAKKQGLSFQIEKHGDTFKITVQ [L22Q]	2.14
TYTFKVDNKDQAKKAAKWAKKLGKSFQIEKHGDTFKITVQ [L24K]	1.32
TYTFKVDNKDQAKKAAKWAKKLGRSFQIEKHGDTFKITVQ [L24R]	1.15
TYTFKVDNKDQAKKAAKWAKKLGESFQIEKHGDTFKITVQ [L24E]	-0.483
TYTFKVDNKDQAKKAAKWAKKLGASFQIEKHGDTFKITVQ [L24A]	1.01
TYTFKVDNKDQAKKAAKWAKKLGVSFQIEKHGDTFKITVQ [L24V]	1.4
TYTFKVANKDQAKKAAKWAKKLGLSFQIEKHGDTFKITVQ [D7A]	2.71
TYTFKVKNKDQAKKAAKWAKKLGLSFQIEKHGDTFKITVQ [D7K]	2.77
TYTFKVDNSDQAKKAAKWAKKLGLSFQIEKHGDTFKITVQ [K9S]	2.14
TYTFKVDNEDQAKKAAKWAKKLGLSFQIEKHGDTFKITVQ [K9E]	2.65
TYTFKVDNKDQAKKAAKWAKKLGLSFQIEKHGDTFWITVQ [K36W]	3.32
TYTFKVDNKDQAKKAAKWAKKLGLSFQIEKHGDTFDITVQ [K36D]	1.65
TYTFKVDNKNQAKKAAKWAKKLGLSFQIEKHGDTFKITVQ [D10N]	2.6
TYTFKVDNKDQAKKAAKWAFKLGLSFQIEKHGDTFKITVQ [K20F]	2.07
TYTFKVDNKDQAKKAAKWAHKLGLSFQIEKHGDTFKITVQ [K20H]	2.01
TYTFKVDNKDQAKKAAKWAGKLGLSFQIEKHGDTFKITVQ [K20G]	1.54

Variant	folding stability dG [kcal/mol]
TYTFKVDNKDQAKKAAKWATKLGLSFQIEKHGDTFKITVQ [K20T]	2.24
TYTFKVDNKDHAKKAAKWAKKLGLSFQIEKHGDTFKITVQ [Q11H]	2.1
TYTFKVDNKDYAKKAAKWAKKLGLSFQIEKHGDTFKITVQ [Q11Y]	1.74
TYTFKVDNKDQHKKAAKWAKKLGLSFQIEKHGDTFKITVQ [A12H]	0.275
TYTFKVDNKDQAKRAAKWAKKLGLSFQIEKHGDTFKITVQ [K14R]	2.62
TYTFKVDNKDQAKIAAKWAKKLGLSFQIEKHGDTFKITVQ [K14I]	2.21
TYTFKVDNKDQAKQAAKWAKKLGLSFQIEKHGDTFKITVQ [K14Q]	2.24
TYTFKVDNKDQAKLAAKWAKKLGLSFQIEKHGDTFKITVQ [K14L]	2.33
TYTFKVDNKDQAKKAAKWAKKLGLSFDIEKHGDTFKITVQ [Q27D]	1.9
TYTFKVDNKDQAKKAAKWAKKLGLSFNIEKHGDTFKITVQ [Q27N]	2.29
TYTFKVDNKDQAKKAAKWAKKLLLSFQIEKHGDTFKITVQ [G23L]	1.24
TYTFKVDNKDQAKKAAKWAKKLGLSFQIEKHGDWFKITVQ [T34W]	2.72
TYTFKVDNKDQAKKAAKWAKKLGLSFQIEKHGDMFKITVQ [T34M]	2.59
TYTFKVDNKDQAKKAAKWAKKLGLSFQIEKHGDEFKITVQ [T34E]	2.4
TYTFKVDNKDQAKKAAKWAKPLGLSFQIEKHGDTFKITVQ [K21P]	-0.644
TYTFKVDNKDQAKKAAKWAKVLGLSFQIEKHGDTFKITVQ [K21V]	1.89
TYTFKVDNKDQAKKAAKWAKELGLSFQIEKHGDTFKITVQ [K21E]	2.02
TYTFKVDNKDQAKKAAKWAKLLGLSFQIEKHGDTFKITVQ [K21L]	2.15
TATFKVDNKDQAKKAAKWAKKLGLSFQIEKHGDTFKITVQ [Y2A]	1.23
TPTFKVDNKDQAKKAAKWAKKLGLSFQIEKHGDTFKITVQ [Y2P]	0.617
TITFKVDNKDQAKKAAKWAKKLGLSFQIEKHGDTFKITVQ [Y2I]	2.27

Variant	folding stability dG [kcal/mol]
TGTFKVDNKDQAKKAAKWAKKLGLSFQIEKHGDTFKITVQ [Y2G]	0.704
TYTFKVDNKDQAKKAAKWAKKLGLSFQIEFHGDTFKITVQ [K30F]	1.91
TYTFKVDNKDQAKKAAKWAKKLGLSFQIEQHGDTFKITVQ [K30Q]	2.48
TYTFKVDNKDQAKKAAKWAKKLGLSFQIEWHGDTFKITVQ [K30W]	1.64
TYTFKVDNKDQAKKAAKWAKKLGLSFQIEEHGDTFKITVQ [K30E]	2.04
TYTFKVDNKDQAKKAAKWAKKLGLSFQIESHGDTFKITVQ [K30S]	2.03
TYTFKVDNKDQAKKAAKWIKKLGLSFQIEKHGDTFKITVQ [A19I]	2.44
TYTFKVDNKDQAKKAAKWGKKLGLSFQIEKHGDTFKITVQ [A19G]	0.902
PYTFKVDNKDQAKKAAKWAKKLGLSFQIEKHGDTFKITVQ [T1P]	2.15
NYTFKVDNKDQAKKAAKWAKKLGLSFQIEKHGDTFKITVQ [T1N]	2.17
CYTFKVDNKDQAKKAAKWAKKLGLSFQIEKHGDTFKITVQ [T1C]	3.57
TYTWKVDNKDQAKKAAKWAKKLGLSFQIEKHGDTFKITVQ [F4W]	2.38
TYTYKVDNKDQAKKAAKWAKKLGLSFQIEKHGDTFKITVQ [F4Y]	1.69
TYTSKVDNKDQAKKAAKWAKKLGLSFQIEKHGDTFKITVQ [F4S]	0.126
TYTHKVDNKDQAKKAAKWAKKLGLSFQIEKHGDTFKITVQ [F4H]	0.581
TYTFKVDNKDQAKKYAKWAKKLGLSFQIEKHGDTFKITVQ [A15Y]	3.04
TYTFKVDNKDQAKKEAKWAKKLGLSFQIEKHGDTFKITVQ [A15E]	0.415
TYTFKVDNKDQAKKWAKWAKKLGLSFQIEKHGDTFKITVQ [A15W]	3.48
TYTFKVDNKDQAKKHAKWAKKLGLSFQIEKHGDTFKITVQ [A15H]	1.42
TYTFKVDFKDQAKKAAKWAKKLGLSFQIEKHGDTFKITVQ [N8F]	1.46
